The values that follow come from the Immune Epitope Database (IEDB).

What all share (assay): IEDB peptide-MHC binding, purified MHC/competitive/radioactivity; filed as Kd, often an IC50 or EC50 that approximates it; ≥ and ≤ were set here for values at or beyond the usual limits of such assays
Holding throughout (details): source organism: human papillomavirus 18

Test [1] concerns the target HLA-A*03:01.
Test [2] has as its target HLA-A*11:02.
Test [3] addresses HLA-A*24:02.
The target of test [4] is HLA-A*01:01.
The target of test [5] is HLA-A*02:01.

As a reminder, the Kd is the concentration at which binding is half-saturated. For HTMLCMCCK, the Kd is 73 nM in test [1] and 5 nM in test [2].

Consider ATLQDIVLH, for which the Kd in test [2] came out at 12 nM.

RCQKPLNPA: the Kd in test [2] stood at 563 nM.

As to VYGDTLEKL, the Kd in test [3] is 222 nM.

As to CIDFYSRIR, the Kd in test [4] amounted to 810 nM; in test [1] it was 273 nM; in test [2] it was 27 nM.

Turning to DIEITCVYC, the Kd stood at 506 nM in test [4], 649 nM in test [5] and 462 nM in test [1].

Consider SIPHAACHK, for which, in test [2], the Kd is 15 nM.

SVYGDTLEK: the Kd in test [1] worked out at 32 nM; in test [2], 2 nM.

On to HLNEKRRFH, for which the Kd in test [1] came out at 667 nM.

As to LIRCLRCQK, the values for the Kd in test [1] and in test [2] were 526 nM and 375 nM, respectively.

Take LFVVYRDSI: the equilibrium dissociation constant (Kd) in test [1] turned out to be 441 nM.

On to VYCKTVLEL, for which the figures for the Kd in test [2] and in test [3] were 563 nM and 24 nM, respectively.

As for LQDIEITCV, the values for the Kd in test [4] and in test [1] were 988 nM and 625 nM, respectively.

Regarding IEITCVYCK, the Kd in test [1] stood at 200 nM.

Regarding FQQLFLNTL, in test [5], the Kd came to 417 nM.

For TEVFEFAFK, the Kd in test [2] is 257 nM.

Turning to RQERLQRRR, the Kd in test [1] worked out at 484 nM.

Consider FAFKDLFVV, for which the Kd in test [5] worked out at 3 nM.

Regarding KCIDFYSRI, the Kd in test [5] was found to be 417 nM.

Consider VVYRDSIPH, for which the Kd in test [2] came out at 5 nM.

With FKDLFVVYR, the Kd in test [4] stood at 736 nM; in test [5], 500 nM; in test [1], 330 nM; in test [2], 500 nM.

As to GQCHSCCNR, in test [2], the Kd came to 64 nM.

Consider LLIRCLRCQ, for which the Kd in test [1] stood at 508 nM.

Regarding RHTMLCMCC, in test [3], the Kd worked out at 733 nM.

Turning to GLYNLLIRC, the Kd was 135 nM in test [5], 313 nM in test [1] and 188 nM in test [2].

Turning to SLQDIEITC, the Kd in test [5] came to 532 nM.

For NTGLYNLLI, the Kd in test [4] was 506 nM.

In the case of FLNTLSFVC, the Kd in test [5] came out at 943 nM.

Consider ELTEVFEFA, for which, in test [5], the Kd came out at 500 nM.

In the case of DLFVVYRDS, the Kd in test [1] came to 1000 nM.

For KLPDLCTEL, in test [5], the Kd stood at 602 nM.

In the case of LFLNTLSFV, the Kd in test [5] is 820 nM.
